The results in this text go back to patent publication US20240067738A1 (ELANCO US, published 2024).

The target in test [1] is T1, canine IL4R (Examples 16, 18 and 19; construct not stated) (canine, biotinylated; sites not stated).
T1 construct: also called Biotinylated canine IL4R; canine IL4R extracellular domains
T1 chain: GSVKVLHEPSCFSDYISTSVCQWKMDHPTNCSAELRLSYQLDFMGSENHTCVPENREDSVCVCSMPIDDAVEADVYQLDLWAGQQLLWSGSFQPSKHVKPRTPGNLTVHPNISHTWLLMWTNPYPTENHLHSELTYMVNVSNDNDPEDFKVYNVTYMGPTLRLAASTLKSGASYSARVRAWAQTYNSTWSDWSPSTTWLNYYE
The test can be described thus: method not stated.

Test [2] addresses T2, Canine IL4R-ECD_C-HuFc_His6 (processed) (canine).
T2 construct: Whole construct (ECD, linker, human Fc, His6) is one entry
The test can be described thus: Western blot.

Test [3] has as its target Human IL4R-ECD_C-HuFc_His6 (processed) (human). As to the kind of experiment: Western blot.
In test [4] the target is T1, canine IL4R (Examples 16, 18 and 19; …). The test can be described thus: BLI (ForteBio OctetRed), biotinylated canine IL4R on streptavidin tip.
The target is the same in test [5]. The test can be described thus: BLI (ForteBio OctetRed).
The target of test [6] is T2, Canine IL4R-ECD_C-HuFc_His6 (processed). The test can be described thus: BLI (Octet), IL4R-ECD_C-HuFc_His6 on anti-human Fc tips. Here is the method:
An alternative binding assay was performed also using an Octet Biosensor. Canine IL4R-ECD_C-HuFc_His6 (SEQ ID NO: 109) was captured on anti-human Fc-bound sensor tips. The association of either Clone B or I antibody and canine IL4R-ECD_C-HuFc_His6 was monitored for 600 seconds. Dissociation was monitored for 600 seconds. The buffer for dilutions and all binding steps was 20 mM phosphate, 150 mM NaCl, pH 7.2. […] In addition, amine conjugation may affect the affinity of canine IL4R-ECD_C-His6 to interact with Clone B and I antibodies.

For test [7], the target named is T3, Canine IL4R-ECD_C-His6 (processed) (canine, biotinylated through amine chemistry; sites not stated).
T3 construct: Whole construct (ECD, linker, His6) is one entry; Captured biotinylated on streptavidin tips or wells
T3 chain: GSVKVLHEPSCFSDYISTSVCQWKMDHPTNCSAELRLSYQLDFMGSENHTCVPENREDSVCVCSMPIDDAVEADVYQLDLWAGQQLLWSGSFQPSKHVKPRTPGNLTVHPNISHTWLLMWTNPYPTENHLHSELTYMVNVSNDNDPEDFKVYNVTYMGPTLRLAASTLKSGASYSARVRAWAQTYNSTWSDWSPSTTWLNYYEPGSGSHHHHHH
The test can be described thus: BLI (Octet), biotinylated IL4R-ECD_C-His6 on streptavidin tips, 1:1 fit. The method, then:
The binding analysis was performed using an Octet Biosensor as follows. Briefly, canine IL4R-ECD_C-His6 (SEQ ID NO: 107) was biotinylated through amine chemistry. The free unreacted biotin was removed by extensive dialysis. Biotinylated canine IL4R-ECD_C-His6 was captured on streptavidin sensor tips. The association of either Clone B or I antibody and canine IL4R-ECD_C-His6 (25 μg/mL) was monitored for 600 seconds. Dissociation was monitored for 600 seconds. A buffer only blank curve was subtracted to correct for any drift. The data were fit to a 1:1 binding model using ForteBio™ data analysis software to determine the kₒₙ, koff, and the Kd. The buffer for dilutions and all binding steps was 20 mM phosphate, 150 mM NaCl, pH 7.2.

The target in test [8] is Equine IL4R-ECD_C-HuFc_His6 (processed) (equine). As to the kind of experiment: Western blot, non-reducing.
The target in test [9] is Murine IL4R-ECD_C-HuFc_His6 (processed) (murine). As to the kind of experiment: Western blot, non-reducing.
The target of test [10] is Human IL4R-ECD_C-HuFc_His6 (processed) (human). The test can be described thus: Western blot, non-reducing.
Test [11] concerns the target T4, Canine/Human IL4R-ECD_C-HuFc_His6 Hybrid 1 (canine/human hybrid).
T4 construct: Canine G1-N55, human N56-H209, human Fc-His6; Tested as 3-fold concentrated 293 supernatant
The test can be described thus: Western blot, non-reducing.

Test [12] addresses T5, Canine/Human IL4R-ECD_C-HuFc_His6 Hybrid 6 (canine/human hybrid).
T5 construct: Canine G1-N55 and P110-P204; human N56-H109
The test can be described thus: Western blot, non-reducing.

Test [13] has as its target T6, Canine/Human IL4R-ECD_C-HuFc_His6 Hybrid 13 (canine/human hybrid).
T6 construct: Canine G1-S89 and P110-P204; human G90-H109
The test can be described thus: Western blot, non-reducing.

The target of test [14] is Feline IL4R-ECD_C-HuFc_His6 (processed) (feline). The test can be described thus: BLI (Octet), biotinylated feline IL4R-ECD_C-HuFc_His6 on streptavidin tips, antibody 25 µg/mL, 1:1 fit. The method, then: This finding was consistent with in vitro binding affinity measured by Octet Biosensor. Biotinylated feline IL4R-ECD_C-HuFc_His6 (SEQ ID NO: 111) was captured on streptavidin sensor tips. The association of Clone I antibody (25 μg/mL) and feline IL4R-ECD_C-HuFc_His6 was monitored for 600 seconds. Dissociation was monitored for 600 seconds. A buffer only blank curve was subtracted to correct for any drift. The data were fit to a 1:1 binding model using ForteBio™ data analysis software to determine the kₒₙ, koff, and the Kd. The buffer for dilutions and all binding steps was 20 mM phosphate, 150 mM NaCl, pH 7.2.

Substitutions are numbered along the chain they refer to.

Sequence of Human IL4R-ECD_C-HuFc_His6 (processed) (human) (chain, as listed by the source limits assumed): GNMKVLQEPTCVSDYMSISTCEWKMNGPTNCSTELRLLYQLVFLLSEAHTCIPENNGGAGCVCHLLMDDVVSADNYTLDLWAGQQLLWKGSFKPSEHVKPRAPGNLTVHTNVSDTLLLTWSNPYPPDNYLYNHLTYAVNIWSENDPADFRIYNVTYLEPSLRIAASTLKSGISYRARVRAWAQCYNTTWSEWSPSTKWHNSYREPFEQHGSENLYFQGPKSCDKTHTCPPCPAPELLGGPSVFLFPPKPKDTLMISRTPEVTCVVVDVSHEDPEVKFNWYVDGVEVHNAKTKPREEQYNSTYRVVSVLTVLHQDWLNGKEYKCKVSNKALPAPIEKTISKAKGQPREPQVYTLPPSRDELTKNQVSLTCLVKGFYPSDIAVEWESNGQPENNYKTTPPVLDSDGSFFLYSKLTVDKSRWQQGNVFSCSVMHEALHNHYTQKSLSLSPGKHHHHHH
T4 sequence (chain, as listed by the source limits assumed): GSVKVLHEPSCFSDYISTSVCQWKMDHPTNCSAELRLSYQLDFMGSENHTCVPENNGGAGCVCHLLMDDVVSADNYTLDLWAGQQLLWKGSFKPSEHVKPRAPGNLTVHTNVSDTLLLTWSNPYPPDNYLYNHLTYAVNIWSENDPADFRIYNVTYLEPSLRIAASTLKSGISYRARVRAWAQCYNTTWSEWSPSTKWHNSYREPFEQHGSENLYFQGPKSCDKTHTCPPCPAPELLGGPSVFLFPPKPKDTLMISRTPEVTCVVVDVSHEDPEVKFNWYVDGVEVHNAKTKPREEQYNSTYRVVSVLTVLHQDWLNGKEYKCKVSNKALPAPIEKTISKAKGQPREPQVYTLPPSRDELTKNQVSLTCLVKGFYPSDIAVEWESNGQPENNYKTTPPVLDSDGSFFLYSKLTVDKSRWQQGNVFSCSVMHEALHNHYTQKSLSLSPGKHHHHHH
Sequence of Murine IL4R-ECD_C-HuFc_His6 (processed) (murine) (chain, as listed by the source limits assumed): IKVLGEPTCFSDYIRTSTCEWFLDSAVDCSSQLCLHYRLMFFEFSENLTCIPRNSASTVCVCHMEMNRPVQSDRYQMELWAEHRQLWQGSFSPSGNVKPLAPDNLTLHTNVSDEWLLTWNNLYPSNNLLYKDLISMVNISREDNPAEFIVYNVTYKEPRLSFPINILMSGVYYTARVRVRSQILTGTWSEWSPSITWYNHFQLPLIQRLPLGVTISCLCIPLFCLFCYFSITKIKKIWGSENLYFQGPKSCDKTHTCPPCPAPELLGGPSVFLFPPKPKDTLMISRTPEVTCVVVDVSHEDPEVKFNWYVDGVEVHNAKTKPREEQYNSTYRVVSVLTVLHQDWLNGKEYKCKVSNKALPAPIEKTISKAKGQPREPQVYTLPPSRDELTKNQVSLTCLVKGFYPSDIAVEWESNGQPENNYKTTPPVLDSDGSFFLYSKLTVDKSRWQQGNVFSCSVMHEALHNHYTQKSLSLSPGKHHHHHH
Sequence of Equine IL4R-ECD_C-HuFc_His6 (processed) (equine) (chain, as listed by the source limits assumed): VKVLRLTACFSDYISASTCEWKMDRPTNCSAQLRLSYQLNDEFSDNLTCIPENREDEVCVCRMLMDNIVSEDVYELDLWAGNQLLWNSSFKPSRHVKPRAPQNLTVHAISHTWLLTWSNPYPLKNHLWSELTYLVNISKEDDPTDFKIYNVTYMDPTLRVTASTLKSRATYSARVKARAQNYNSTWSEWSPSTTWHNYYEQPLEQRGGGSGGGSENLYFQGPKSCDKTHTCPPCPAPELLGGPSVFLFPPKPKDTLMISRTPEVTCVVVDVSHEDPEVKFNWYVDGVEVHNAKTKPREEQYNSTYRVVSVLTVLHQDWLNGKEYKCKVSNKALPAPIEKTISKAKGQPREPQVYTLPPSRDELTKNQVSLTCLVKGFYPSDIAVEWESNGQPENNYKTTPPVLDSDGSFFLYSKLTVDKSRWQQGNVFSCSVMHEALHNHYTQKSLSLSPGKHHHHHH
T5 sequence (chain, as listed by the source limits assumed): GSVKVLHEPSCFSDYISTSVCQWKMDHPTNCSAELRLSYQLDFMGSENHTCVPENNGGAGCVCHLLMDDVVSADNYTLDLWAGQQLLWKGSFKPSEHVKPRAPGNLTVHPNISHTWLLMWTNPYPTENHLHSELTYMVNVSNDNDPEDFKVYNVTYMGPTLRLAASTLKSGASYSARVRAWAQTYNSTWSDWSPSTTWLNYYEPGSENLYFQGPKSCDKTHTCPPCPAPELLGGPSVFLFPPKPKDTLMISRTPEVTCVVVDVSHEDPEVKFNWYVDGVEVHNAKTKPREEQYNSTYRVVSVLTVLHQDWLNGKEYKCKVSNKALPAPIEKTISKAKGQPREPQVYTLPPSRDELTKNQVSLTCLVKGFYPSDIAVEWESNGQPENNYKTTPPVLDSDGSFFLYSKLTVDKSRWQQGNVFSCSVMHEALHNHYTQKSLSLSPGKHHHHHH
Sequence of Feline IL4R-ECD_C-HuFc_His6 (processed) (feline) (chain, as listed by the source limits assumed): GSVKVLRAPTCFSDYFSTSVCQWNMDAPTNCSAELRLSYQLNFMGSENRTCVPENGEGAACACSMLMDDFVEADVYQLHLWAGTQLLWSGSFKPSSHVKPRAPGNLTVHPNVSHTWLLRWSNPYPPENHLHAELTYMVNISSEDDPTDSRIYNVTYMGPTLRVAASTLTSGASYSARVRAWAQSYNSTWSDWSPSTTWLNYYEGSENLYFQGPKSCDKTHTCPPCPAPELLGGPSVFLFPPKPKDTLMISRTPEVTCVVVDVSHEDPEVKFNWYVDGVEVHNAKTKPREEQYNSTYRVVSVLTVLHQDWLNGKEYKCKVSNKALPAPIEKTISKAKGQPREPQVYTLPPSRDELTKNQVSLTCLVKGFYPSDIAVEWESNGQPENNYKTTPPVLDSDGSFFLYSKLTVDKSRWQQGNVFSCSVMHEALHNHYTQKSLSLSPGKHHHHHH
T6 sequence (chain, as listed by the source limits assumed): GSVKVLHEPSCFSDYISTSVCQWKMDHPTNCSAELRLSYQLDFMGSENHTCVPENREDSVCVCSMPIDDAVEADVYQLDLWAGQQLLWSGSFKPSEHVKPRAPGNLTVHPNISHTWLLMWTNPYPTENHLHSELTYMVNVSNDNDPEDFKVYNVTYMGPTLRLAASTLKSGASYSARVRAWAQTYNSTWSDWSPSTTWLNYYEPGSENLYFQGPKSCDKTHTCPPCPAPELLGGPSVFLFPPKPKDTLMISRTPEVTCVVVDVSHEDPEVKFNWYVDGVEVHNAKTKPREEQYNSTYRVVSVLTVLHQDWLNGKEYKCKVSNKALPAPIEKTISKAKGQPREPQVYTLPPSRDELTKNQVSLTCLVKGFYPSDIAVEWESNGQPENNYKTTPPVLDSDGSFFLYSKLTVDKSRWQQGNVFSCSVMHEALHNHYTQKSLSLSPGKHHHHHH

B1: caninized M3 antibody, variable HC v1 with variant canine IgG-B (C1q-, CD16-) and variable LC v1 with canine kappa (antibody, V domains shown)
VH: EVQLVESGGDLVKPAGSLRLSCTVSGFSLSRYSVHWVRQAPGKGLEWLGMIWGGGSTDYNSVVKGRFTISRDNAKNTVYLQMNSLRAEDTAMYYCARTYRGYALDYWGQGTLVTVSS
VL: DIVMTQTPLSLSVSPGEPASISCRASQDISNYLNWYLQKAGQSPRLLIYYTSRLQSGVPDRFSGSGSGTDFTLRIGRVEAEDAGIYFCQQANTLPLTFGQGTRLEVRR
notes: also called caninized M3 HC v1 / LC v1
As for B1, the Kd in test [1] was at most 1 nM.

B2: caninized M3 antibody, variable HC v2 with variant canine IgG-B (C1q-, CD16-) and variable LC v1 with canine kappa (antibody, V domains shown)
VH: ELTLQESGPGLVKPSQTLSLTCTVSGFSLSRYSVHWIRQPRGRGLELLGMIWGGGSTDYNPAFQGRISITADTAKNQFSLQLSSMTTEDTAVYYCARTYRGYALDYWGQGTLVTVSS
VL: B1 VL
notes: also called caninized M3 HC v2 / LC v1
For B2, in test [1], the Kd is at most 1 nM.

B3: M3 mouse monoclonal antibody (antibody, V domains shown)
VH: QVQLKESGPGLVAPSQSLSITCTVSGFSLSRYSVHWVRQPPGKGLEWLGMIWGGGSTDYNSVFKSRLSISKDNSKSQVFLKMNSLQTDDTAMYYCARTYRGYALDYWGQGTSVTVSS
VL: DIQMTQTTSSLSASLGDRVTISCRASQDISNYLNWYQQKPDGTVKLLIYYTSRLQSGVPSRFSGSGSGTDYCLTISNLEQEDIATYFCQQANTLPLTFGSGTKLELK
notes: Mouse antibody purified from hybridoma culture; also called Clone M3
For B3, the binding result in [2] is listed as “binds”; in [3], “no binding”. The molecule further gave a Kd in test [4] of under 10 nM.

B4: murine-canine chimeric M5 antibody (canine IgG-B, canine kappa) (antibody, V domains shown)
VH: B3 VH
VL: B3 VL
notes: also called chimeric canine IgG-B (M5)
Consider B4, for which the Kd in [5] was under 10 nM.

B5: M5 mouse monoclonal antibody (antibody, V domains shown)
VH: B3 VH
VL: B3 VL
notes: Mouse antibody purified from hybridoma culture; also called Clone M5
With B5, the Kd in [4] was under 10 nM.

B6: murine-canine chimeric M3 antibody (canine IgG-B, canine kappa) (antibody, V domains shown)
VH: B3 VH
VL: B3 VL
notes: also called chimeric canine IgG-B (M3)
In the case of B6, the Kd in test [5] is under 10 nM.

B7: Clone B mouse monoclonal antibody (antibody, mouse IgG1, kappa, V domains shown)
VH: EVKLEESGPELVKPGASVKMSCKASGYTFTSYVMHWVKQKPGQGLEWIGYINPKNDGTFYNGKFKGKATLTSDKSSSTAYMELSSLTSEDSAVYYCAAFNYGIAYWGQGTLVTVSS
VL: IVLTQTPSSLSASLGERVSLTCRASQEISGYLSWLQQKPDGTIKRLIYAASTLDSGVPKRFSGSRSGSDFSLTISSLESEDFADYYCVQYASYPWTFGGGARLEIKR
notes: also called Clone B antibody; anti-IL4R-mAb Clone B
As to B7, the Kd in test [6] is about 0.1 nM; in test [7], 2.03 nM.

B8: Clone I mouse monoclonal antibody (antibody, mouse IgG1, kappa, V domains shown)
VH: B7 VH with K3Q, E5Q, E6Q, K54N, N100Y, I103F, S116A
VL: DIVLTQSPSSLSASLGERVSLTCRASQEISGYLSWLQQKPDGTIKRLIYAASTLDSGVPKRFSGSRSGSDFSLTISSLESEDFADYYCLQYASYPWTFGGGAKLEIKR
notes: also called Clone I antibody; anti-IL4R-mAb Clone I
As to B8, the binding result in test [8] is “no binding (tested: Clone I 0.3 µg/mL; 0.1 µg/lane)”; in test [9], “no binding (tested: Clone I 0.3 µg/mL; 0.1 µg/lane)”; in test [10], “no binding (tested: Clone I 0.3 µg/mL; 0.1 µg/lane)”; in [11], “binds”; in [12], “binds”; in test [13], “binds”. For the same molecule, binding in test [14] was put at a Kd of 1.1 nM.

B9: M9 mouse monoclonal antibody (antibody, V domains shown)
VH: DVQLVESGGGLVQPGGSRKLSCAASGFTFSSFGMHWVRQAPEKGLEWVAYIRSDSSTIYYADTVKGRFTISRDNPKNTLFLQMTSLRSEDTAMYYCARSGYYGSFSLTYWGQGTLVTVSA
VL: EIVLTQSPTTMAASPGEKITITCSASSSVSSNYLHWYQQKPGFSPKLLIYRTSNLPSGVPARFFGSGSGTSYSLTIGTMEAEDVATYYCQQGSGMLTFGAGTKLELK
notes: Mouse antibody purified from hybridoma culture; also called Clone M9
With B9, the results for the binding result in test [2] and in test [3] were “binds” and “no binding”, respectively. The molecule further showed a Kd in test [4] of under 10 nM.

B10: murine-canine chimeric M9 antibody (canine IgG-B, canine kappa) (antibody, V domains shown)
VH: B9 VH
VL: B9 VL
notes: also called chimeric canine IgG-B (M9)
With B10, in [5], the Kd was under 10 nM.

B11: caninized M9 antibody, variable HC v1 with variant canine IgG-B (C1q-, CD16-) and variable LC v1 with canine kappa (antibody, V domains shown)
VH: EVQLVESGGDLVKPGGSLRLSCAASGFTFSSFGMHWVRQAPGKGLEWVAYIRSDSSTIYYADAVKGRFTISRDNAKNTLYLQMNSLRAEDTAMYYCARSGYYGSFSLTYWGQGTLVTVSS
VL: DIMLTQTPLSLSVSPGEPASISCSASSSVSSNYLHWYLQKAGQSPRLLIYRTSNLPSGVPDRFSGSGSGTDFTLRIGRVEAEDAGIYYCQQGSGMLTFGQGTRLEVRR
notes: also called caninized M9 HC v1 / LC v1
The molecule B11 gave a Kd in test [1] of at most 1 nM.

B12: caninized M9 antibody, variable HC v2 with variant canine IgG-B (C1q-, CD16-) and variable LC v1 with canine kappa (antibody, V domains shown)
VH: B11 VH with A23V, E46Q
VL: B11 VL
notes: also called caninized M9 HC v2 / LC v1
Regarding B12, the Kd in test [1] was at most 1 nM.

B13: M8 mouse monoclonal antibody (antibody, V domains shown)
VH: QVQLQQSGPELVKPGALVKISCKASGYTFTSYDINWVKQRPGQGLEWIGWIYPGDGSTKYNEKFKGKATLTADKSSSTAYMQLSSLTSEDSAVYFCARSSFVVWGAGTTVTVSS
VL: DIQMTQSSSYLSVSLGGRVTITCKASDPINNWLAWYQQKPGNAPRLLISGATSLETGVPSRISGSGSGKDYSLSITSLQTEDIATYYCHQYWSIPYTFGGGTKLEIK
notes: Mouse antibody purified from hybridoma culture; also called Clone M8
For B13, the figures for the binding result in test [2] and in test [3] were “binds” and “no binding”, respectively. The Kd in [4] was under 10 nM.

B14: murine-canine chimeric M8 antibody (canine IgG-B, canine kappa) (antibody, V domains shown)
VH: B13 VH
VL: B13 VL
notes: also called chimeric canine IgG-B (M8)
In test [5], B14 came in with a Kd of under 10 nM.
